Assay results published in publication PMC10397247.

Columns and labels:
[1] = biological target: T1, O8; assay: two-hybrid library CC0; details: mean of both orientations;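 further: natural log of median RNA to DNA barcode read ratio; higher means stronger binding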
T1 chain: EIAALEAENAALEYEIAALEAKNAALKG

[2] = biological target: T2, O11; assay: two-hybrid library CC0; details: mean of both orientations;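 further: natural log of median RNA to DNA barcode read ratio; higher means stronger binding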
T2 chain: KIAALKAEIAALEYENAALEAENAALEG

[3] = biological target: T3, O4; assay: two-hybrid library CC0; details: mean of both orientations;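 further: natural log of median RNA to DNA barcode read ratio; higher means stronger binding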
T3 chain: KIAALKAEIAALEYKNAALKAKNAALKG

[4] = biological target: T4, O3; assay: two-hybrid library CC0; details: mean of both orientations;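 further: natural log of median RNA to DNA barcode read ratio; higher means stronger binding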
T4 chain: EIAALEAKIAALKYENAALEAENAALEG

[5] = biological target: T5, O9; assay: two-hybrid library CC0; details: mean of both orientations
T5 chain: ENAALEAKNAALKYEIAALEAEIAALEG

[6] = biological target: T6, O5; assay: two-hybrid library CC0; details: mean of both orientations
T6 chain: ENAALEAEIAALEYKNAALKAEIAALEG

[7] = biological target: T7, O13; assay: two-hybrid library CC0; details: mean of both orientations
T7 chain: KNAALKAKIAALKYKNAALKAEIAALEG

[8] = biological target: T8, O12; assay: two-hybrid library CC0; details: mean of both orientations
T8 chain: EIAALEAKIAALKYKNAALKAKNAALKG

[9] = biological target: T9, O16; assay: two-hybrid library CC0; details: mean of both orientations
T9 chain: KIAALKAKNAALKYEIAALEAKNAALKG

[10] = biological target: T10, O15; assay: two-hybrid library CC0; details: mean of both orientations
T10 chain: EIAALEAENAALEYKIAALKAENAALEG

[11] = biological target: T11, O7; assay: two-hybrid library CC0; details: mean of both orientations
T11 chain: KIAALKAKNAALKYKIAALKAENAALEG

[12] = biological target: T12, O14; assay: two-hybrid library CC0; details: mean of both orientations
T12 chain: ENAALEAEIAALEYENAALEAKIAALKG

[13] = biological target: T13, O2; assay: two-hybrid library CC0; details: mean of both orientations
T13 chain: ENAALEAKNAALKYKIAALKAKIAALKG

[14] = biological target: T14, O6; assay: two-hybrid library CC0; details: mean of both orientations
T14 chain: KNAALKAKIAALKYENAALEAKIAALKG

[15] = biological target: T15, O14-AA; assay: two-hybrid library CCmax; details: mean of both orientations
T15 chain: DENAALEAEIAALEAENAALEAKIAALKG

[16] = biological target: T16, 4H2888-AA; assay: two-hybrid library CCmax; details: mean of both orientations
T16 chain: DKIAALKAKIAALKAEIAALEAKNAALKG

[17] = biological target: T17, 4H3049-AA; assay: two-hybrid library CCmax; details: mean of both orientations
T17 chain: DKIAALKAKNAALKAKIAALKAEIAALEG

[18] = biological target: T18, 4H2736-AA; assay: two-hybrid library CCmax; details: mean of both orientations
T18 chain: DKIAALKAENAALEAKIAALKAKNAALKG

[19] = biological target: T19, 4H3905-AA; assay: two-hybrid library CCmax; details: mean of both orientations
T19 chain: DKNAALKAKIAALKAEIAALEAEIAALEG

[20] = biological target: T20, 4H4038-AA; assay: two-hybrid library CCmax; details: mean of both orientations
T20 chain: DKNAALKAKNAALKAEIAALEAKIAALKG

[21] = biological target: T21, 4H451-AA; assay: two-hybrid library CCmax; details: mean of both orientations
T21 chain: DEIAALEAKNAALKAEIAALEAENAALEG

[22] = biological target: T22, 4H1385-AA; assay: two-hybrid library CCmax; details: mean of both orientations
T22 chain: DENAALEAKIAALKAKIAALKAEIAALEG

[23] = biological target: T23, 4H134-AA; assay: two-hybrid library CCmax
T23 chain: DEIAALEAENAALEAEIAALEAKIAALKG

[24] = biological target: T24, 4H3590-AA; assay: two-hybrid library CCmax; details: mean of both orientations
T24 chain: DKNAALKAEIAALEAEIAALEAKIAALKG

[25] = biological target: T25, O13-AA; assay: two-hybrid library CCmax; details: mean of both orientations
T25 chain: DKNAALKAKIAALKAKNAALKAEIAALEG

[26] = biological target: T26, 4H1350-AA; assay: two-hybrid library CCmax; details: mean of both orientations
T26 chain: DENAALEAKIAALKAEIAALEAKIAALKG

[27] = biological target: T27, 4H384-AA; assay: two-hybrid library CCmax; details: mean of both orientations
T27 chain: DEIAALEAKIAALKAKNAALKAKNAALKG

[28] = biological target: 4H_GCN4; assay: two-hybrid library CCmax
4H_GCN4, sequence (chain, as listed by the source): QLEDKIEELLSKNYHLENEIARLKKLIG

[29] = biological target: T28, 4H510-AA; assay: two-hybrid library CCmax; details: mean of both orientations
T28 chain: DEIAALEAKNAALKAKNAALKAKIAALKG

[30] = biological target: T29, 4H1392-AA; assay: two-hybrid library CCmax; details: mean of both orientations
T29 chain: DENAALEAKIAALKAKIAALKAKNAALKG

[31] = biological target: T30, 4H43-AA; assay: two-hybrid library CCmax; details: mean of both orientations
T30 chain: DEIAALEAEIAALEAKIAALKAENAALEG

[32] = biological target: GCN2_T; assay: two-hybrid library CCmax; details: mean of both orientations
[33] = biological target: T31, 4H3625-AA; assay: two-hybrid library CCmax; details: mean of both orientations
T31 chain: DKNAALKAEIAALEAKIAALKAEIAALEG

[34] = biological target: T32, 4H2705-AA; assay: two-hybrid library CCmax; details: mean of both orientations
T32 chain: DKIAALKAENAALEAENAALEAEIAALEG

[35] = biological target: T33, 4H_APH; assay: two-hybrid library CCmax; details: mean of both orientations
T33 chain: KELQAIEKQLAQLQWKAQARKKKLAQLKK

[36] = biological target: T34, 4H_BCR; assay: two-hybrid library CCmax
T34 chain: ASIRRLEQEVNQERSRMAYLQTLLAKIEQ

[37] = biological target: T35, 4H2622-AA; assay: two-hybrid library CCmax; details: mean of both orientations
T35 chain: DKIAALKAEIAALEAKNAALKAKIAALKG

[38] = biological target: T36, 4H3587-AA; assay: two-hybrid library CCmax; details: mean of both orientations
T36 chain: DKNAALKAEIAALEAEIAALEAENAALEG

[39] = biological target: T37, 4H337-AA; assay: two-hybrid library CCmax; details: mean of both orientations
T37 chain: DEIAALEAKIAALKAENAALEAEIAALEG

[40] = biological target: T38, O11-AA; assay: two-hybrid library CCmax; details: mean of both orientations
T38 chain: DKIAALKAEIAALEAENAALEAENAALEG

[41] = biological target: T39, 4H741-bN; assay: two-hybrid library CCNG1
T39 chain: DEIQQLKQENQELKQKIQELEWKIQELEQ

[42] = biological target: T40, 4H2143-bN; assay: two-hybrid library CCNG1; details: mean of both orientations
T40 chain: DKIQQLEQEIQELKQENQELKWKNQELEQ

[43] = biological target: T41, 4H2915-bN; assay: two-hybrid library CCNG1
T41 chain: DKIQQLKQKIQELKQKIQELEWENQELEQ

[44] = biological target: T42, 4H3277-bN; assay: two-hybrid library CCNG1
T42 chain: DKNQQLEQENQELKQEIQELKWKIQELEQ

[45] = biological target: T43, 4H2588-bN; assay: two-hybrid library CCNG1
T43 chain: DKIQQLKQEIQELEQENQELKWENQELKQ

[46] = biological target: T44, 4H492-bN; assay: two-hybrid library CCNG1
T44 chain: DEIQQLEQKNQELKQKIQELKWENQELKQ

[47] = biological target: T45, 4H2223-bN; assay: two-hybrid library CCNG1
T45 chain: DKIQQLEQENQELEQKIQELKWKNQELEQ

[48] = biological target: T46, 4H2717-bN; assay: two-hybrid library CCNG1
T46 chain: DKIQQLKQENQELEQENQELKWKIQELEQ

[49] = biological target: T47, 4H2438-bN; assay: two-hybrid library CCNG1
T47 chain: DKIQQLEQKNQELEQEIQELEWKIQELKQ

[50] = biological target: T48, 4H2503-bN; assay: two-hybrid library CCNG1
T48 chain: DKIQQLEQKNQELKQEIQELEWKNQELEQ

[51] = biological target: T49, 4H40-bN; assay: two-hybrid library CCNG1
T49 chain: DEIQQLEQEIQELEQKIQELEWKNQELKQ

[52] = biological target: T50, 4H2473-bN; assay: two-hybrid library CCNG1
T50 chain: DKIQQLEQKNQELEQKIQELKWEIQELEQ

[53] = biological target: T51, 4H2839-bN; assay: two-hybrid library CCNG1
T51 chain: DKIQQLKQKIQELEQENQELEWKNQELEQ

[54] = biological target: T52, 4H348-bN; assay: two-hybrid library CCNG1
T52 chain: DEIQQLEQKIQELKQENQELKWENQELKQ

[55] = biological target: T53, 4H319-bN; assay: two-hybrid library CCNG1
T53 chain: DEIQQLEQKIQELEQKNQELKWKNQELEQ

[56] = biological target: T54, 4H477-bN; assay: two-hybrid library CCNG1
T54 chain: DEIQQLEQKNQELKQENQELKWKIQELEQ

[57] = biological target: T55, 4H2134-bN; assay: two-hybrid library CCNG1
T55 chain: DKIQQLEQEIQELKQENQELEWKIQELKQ

[58] = biological target: T56, 4H2692-bN; assay: two-hybrid library CCNG1
T56 chain: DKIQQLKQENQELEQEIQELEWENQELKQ

[59] = biological target: T57, 4H3057-bN; assay: two-hybrid library CCNG1
T57 chain: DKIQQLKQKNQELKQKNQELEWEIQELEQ

For KIAALKAEIAALEYENAALEAENAALEG [O11], which interaction score [1] is on record?
Its interaction score is -2.61.

What about the interaction score [2] of the same binder?
The interaction score was -2.72.

What about the interaction score [3] of the same binder?
Its interaction score is 0.197.

What about the interaction score [4] of the same binder?
The interaction score was -2.55.

What about the interaction score [5] of the same binder?
The interaction score was -2.79.

And the interaction score [6]?
Its interaction score is -2.71.

What about the interaction score [7] of the same binder?
The interaction score was -2.75.

And the interaction score [8]?
The interaction score was 0.932.

And the interaction score [9]?
The interaction score was -2.66.

What about the interaction score [10] of the same binder?
Its interaction score is -2.79.

What about the interaction score [11] of the same binder?
The interaction score was -2.69.

What about the interaction score [12] of the same binder?
Its interaction score is -2.7.

What about the interaction score [13] of the same binder?
The interaction score was -2.53.

And the interaction score [14]?
The interaction score was -2.64.

What does the source list for DEIAALEAENAALEAEIAALEAKIAALKG [4H134-AA]?
interaction score [15]: -0.533; interaction score [16]: 2.4; interaction score [17]: 1.84; interaction score [18]: 0.536; interaction score [19]: 1.17; interaction score [20]: 2; interaction score [21]: 0.937; interaction score [22]: 2.21; interaction score [23]: -0.374; interaction score [24]: 0.654; interaction score [25]: 2.02; interaction score [26]: 0.48; interaction score [27]: 2.04; interaction score [28]: 1.94; interaction score [29]: 1.96; interaction score [30]: 0.139; interaction score [31]: -0.679; interaction score [32]: 0.268; interaction score [33]: 1.5; interaction score [34]: -0.938; interaction score [35]: 1.96; interaction score [36]: -0.839; interaction score [37]: 2.38; interaction score [38]: 0.794; interaction score [39]: 0.273; interaction score [40]: -1.36

Which interaction score [41] does the source give for DKIQQLEQEIQELKQENQELEWKIQELKQ [4H2134-bN] here?
Its interaction score is 0.14.

And the interaction score [42]?
The interaction score was 0.912.

What about the interaction score [43] of the same binder?
The interaction score was -1.35.

What about the interaction score [44] of the same binder?
The interaction score was -0.911.

And the interaction score [45]?
Its interaction score is -0.119.

And the interaction score [46]?
Its interaction score is -1.68.

What about the interaction score [47] of the same binder?
Its interaction score is -0.162.

And the interaction score [48]?
The interaction score was -0.26.

And the interaction score [49]?
The interaction score was 0.477.

What about the interaction score [50] of the same binder?
The interaction score was -0.659.

And the interaction score [51]?
The interaction score was -0.166.

And the interaction score [52]?
The interaction score was 0.214.

And the interaction score [53]?
The interaction score was 0.142.

And the interaction score [54]?
The interaction score was -0.138.

And the interaction score [55]?
The interaction score was 0.833.

And the interaction score [56]?
Its interaction score is 0.581.

And the interaction score [57]?
The interaction score was 1.45.

What about the interaction score [58] of the same binder?
Its interaction score is 0.473.

What about the interaction score [59] of the same binder?
Its interaction score is 0.93.
